This note sets out measurements from the supplement of paper PMC12338614.

B1: library; numbered along this chain (parent)
chain: MEVVDPQQLGMFTEGELMSVGMDTFIHRIDSTEVIYQPRRKRAKLIGKYLMGDLLGEGSYGKVKEVLDSETLCRRAVKILKKKKLRRIPNGEANVKKEIQLLRRLRHKNVIQLVDVLYNEEKQKMYMVMEYCVCGMQEMLDSVPEKRFPVCQAHGYFCQLIDGLEYLHSQGIVHKDIKPGNLLLTTGGTLKISDLGVAEALHPFAADDTCRTSQGSPAFQPPEIANGLDTFSGFKVDIWSAGVTLYNITTGLYPFEGDNIYKLFENIGKGSYAIPGDCGPPLSDLLKGMLEYEPAKRFSIRQIRQHSWFRKKHPPAEAPVPIPPSPDTKDRWRSMTVVPYLEDLHGADEDEDLFDIEDDIIYTQDFTVPGQVPEEEASHNGQRRGLPKAVCMNGTEAAQLSTKSRAEGRAPNPARKACSASSKIRRLSACKQQ

± gives the uncertainty stated by the source.

Variants of B1 are the subject of this data set. Kind of data set: STK11 functional score (HeLa growth suppression), rescaled enrichment; synonymous median = 1, nonsense median = 0 (normalised score). The following applies: with HeLa; variant type: missense. The procedure:
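Deep mutational scan (TileSeq/POPCode codon randomisation) of full-length codon-optimised STK11 cDNA integrated at a Bxb1 landing pad (AAVS1) in HeLa cells. Restoring functional STK11 suppresses HeLa proliferation. Variant frequencies were measured by NGS before and after about two weeks of growth. The error-corrected enrichment log-ratio was rescaled so that synonymous median = 1 and nonsense median = 0, scores above 1 were compressed, and codon-level and three biological replicate scores were combined; error is the bootstrapped standard error. Scale: synonymous median = 1, nonsense median = 0; below 0.5 = damaging.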
As to MEVVDPQQLGMFTEGELMSVGMDTFIHRIDSTEVIYQPRRKRAKLIGKYLMGDLLGEGSYGKVKEVLDSETLCRRAVKILKKKKLRRIPNGEANVKKEIQLLRRLRHKNVIQLVDVLYNEEKQKMYMVMEYCVCGMVEMLDSVPEKRFPVCQAHGYFCQLIDGLEYLHSQGIVHKDIKPGNLLLTTGGTLKISDLGVAEALHPFAADDTCRTSQGSPAFQPPEIANGLDTFSGFKVDIWSAGVTLYNITTGLYPFEGDNIYKLFENIGKGSYAIPGDCGPPLSDLLKGMLEYEPAKRFSIRQIRQHSWFRKKHPPAEAPVPIPPSPDTKDRWRSMTVVPYLEDLHGADEDEDLFDIEDDIIYTQDFTVPGQVPEEEASHNGQRRGLPKAVCMNGTEAAQLSTKSRAEGRAPNPARKACSASSKIRRLSACKQQ [Q137V], the STK11 functional score came out at 1.27 ± 0.12.

Take MEVVDPQQLGMFTEGELMSVGMDTFIHRIDSTEVIYQPRRKRAKLIGKYLMGDLLGEGSYGKVKEVLDSETLCRRAVKILKKKKLRRIPNGEANVKKEIQLLRRLRHKNVIQLVDVLYNEEKQKMYMVMEYCVCGMLEMLDSVPEKRFPVCQAHGYFCQLIDGLEYLHSQGIVHKDIKPGNLLLTTGGTLKISDLGVAEALHPFAADDTCRTSQGSPAFQPPEIANGLDTFSGFKVDIWSAGVTLYNITTGLYPFEGDNIYKLFENIGKGSYAIPGDCGPPLSDLLKGMLEYEPAKRFSIRQIRQHSWFRKKHPPAEAPVPIPPSPDTKDRWRSMTVVPYLEDLHGADEDEDLFDIEDDIIYTQDFTVPGQVPEEEASHNGQRRGLPKAVCMNGTEAAQLSTKSRAEGRAPNPARKACSASSKIRRLSACKQQ [Q137L]: the STK11 functional score came out at 1.27 ± 0.084.

Consider MEVVDPQQLGMFTEGELMSVGMDTFIHRIDSTEVIYQPRRKRAKLIGKYLMGDLLGEGSYGKVKEVLDSETLCRRAVKILKKKKLRRIPNGEANVKKEIQLLRRLRHKNVIQLVDVLYNEEKQKMYMVMEYCVCGMTEMLDSVPEKRFPVCQAHGYFCQLIDGLEYLHSQGIVHKDIKPGNLLLTTGGTLKISDLGVAEALHPFAADDTCRTSQGSPAFQPPEIANGLDTFSGFKVDIWSAGVTLYNITTGLYPFEGDNIYKLFENIGKGSYAIPGDCGPPLSDLLKGMLEYEPAKRFSIRQIRQHSWFRKKHPPAEAPVPIPPSPDTKDRWRSMTVVPYLEDLHGADEDEDLFDIEDDIIYTQDFTVPGQVPEEEASHNGQRRGLPKAVCMNGTEAAQLSTKSRAEGRAPNPARKACSASSKIRRLSACKQQ [Q137T], for which the STK11 functional score was 1.6 ± 0.28.

On to MEVVDPQQLGMFTEGELMSVGMDTFIHRIDSTEVIYQPRRKRAKLIGKYLMGDLLGEGSYGKVKEVLDSETLCRRAVKILKKKKLRRIPNGEANVKKEIQLLRRLRHKNVIQLVDVLYNEEKQKMYMVMEYCVCGMPEMLDSVPEKRFPVCQAHGYFCQLIDGLEYLHSQGIVHKDIKPGNLLLTTGGTLKISDLGVAEALHPFAADDTCRTSQGSPAFQPPEIANGLDTFSGFKVDIWSAGVTLYNITTGLYPFEGDNIYKLFENIGKGSYAIPGDCGPPLSDLLKGMLEYEPAKRFSIRQIRQHSWFRKKHPPAEAPVPIPPSPDTKDRWRSMTVVPYLEDLHGADEDEDLFDIEDDIIYTQDFTVPGQVPEEEASHNGQRRGLPKAVCMNGTEAAQLSTKSRAEGRAPNPARKACSASSKIRRLSACKQQ [Q137P], for which the STK11 functional score was determined as 1.19 ± 0.32.

As for MEVVDPQQLGMFTEGELMSVGMDTFIHRIDSTEVIYQPRRKRAKLIGKYLMGDLLGEGSYGKVKEVLDSETLCRRAVKILKKKKLRRIPNGEANVKKEIQLLRRLRHKNVIQLVDVLYNEEKQKMYMVMEYCVCGMIEMLDSVPEKRFPVCQAHGYFCQLIDGLEYLHSQGIVHKDIKPGNLLLTTGGTLKISDLGVAEALHPFAADDTCRTSQGSPAFQPPEIANGLDTFSGFKVDIWSAGVTLYNITTGLYPFEGDNIYKLFENIGKGSYAIPGDCGPPLSDLLKGMLEYEPAKRFSIRQIRQHSWFRKKHPPAEAPVPIPPSPDTKDRWRSMTVVPYLEDLHGADEDEDLFDIEDDIIYTQDFTVPGQVPEEEASHNGQRRGLPKAVCMNGTEAAQLSTKSRAEGRAPNPARKACSASSKIRRLSACKQQ [Q137I], the STK11 functional score turned out to be 0.934 ± 0.38.

Regarding MEVVDPQQLGMFTEGELMSVGMDTFIHRIDSTEVIYQPRRKRAKLIGKYLMGDLLGEGSYGKVKEVLDSETLCRRAVKILKKKKLRRIPNGEANVKKEIQLLRRLRHKNVIQLVDVLYNEEKQKMYMVMEYCVCGMKEMLDSVPEKRFPVCQAHGYFCQLIDGLEYLHSQGIVHKDIKPGNLLLTTGGTLKISDLGVAEALHPFAADDTCRTSQGSPAFQPPEIANGLDTFSGFKVDIWSAGVTLYNITTGLYPFEGDNIYKLFENIGKGSYAIPGDCGPPLSDLLKGMLEYEPAKRFSIRQIRQHSWFRKKHPPAEAPVPIPPSPDTKDRWRSMTVVPYLEDLHGADEDEDLFDIEDDIIYTQDFTVPGQVPEEEASHNGQRRGLPKAVCMNGTEAAQLSTKSRAEGRAPNPARKACSASSKIRRLSACKQQ [Q137K], the STK11 functional score was found to be 0.752 ± 0.41.

For MEVVDPQQLGMFTEGELMSVGMDTFIHRIDSTEVIYQPRRKRAKLIGKYLMGDLLGEGSYGKVKEVLDSETLCRRAVKILKKKKLRRIPNGEANVKKEIQLLRRLRHKNVIQLVDVLYNEEKQKMYMVMEYCVCGMSEMLDSVPEKRFPVCQAHGYFCQLIDGLEYLHSQGIVHKDIKPGNLLLTTGGTLKISDLGVAEALHPFAADDTCRTSQGSPAFQPPEIANGLDTFSGFKVDIWSAGVTLYNITTGLYPFEGDNIYKLFENIGKGSYAIPGDCGPPLSDLLKGMLEYEPAKRFSIRQIRQHSWFRKKHPPAEAPVPIPPSPDTKDRWRSMTVVPYLEDLHGADEDEDLFDIEDDIIYTQDFTVPGQVPEEEASHNGQRRGLPKAVCMNGTEAAQLSTKSRAEGRAPNPARKACSASSKIRRLSACKQQ [Q137S], the STK11 functional score worked out at 1.42 ± 0.23.

Consider MEVVDPQQLGMFTEGELMSVGMDTFIHRIDSTEVIYQPRRKRAKLIGKYLMGDLLGEGSYGKVKEVLDSETLCRRAVKILKKKKLRRIPNGEANVKKEIQLLRRLRHKNVIQLVDVLYNEEKQKMYMVMEYCVCGMREMLDSVPEKRFPVCQAHGYFCQLIDGLEYLHSQGIVHKDIKPGNLLLTTGGTLKISDLGVAEALHPFAADDTCRTSQGSPAFQPPEIANGLDTFSGFKVDIWSAGVTLYNITTGLYPFEGDNIYKLFENIGKGSYAIPGDCGPPLSDLLKGMLEYEPAKRFSIRQIRQHSWFRKKHPPAEAPVPIPPSPDTKDRWRSMTVVPYLEDLHGADEDEDLFDIEDDIIYTQDFTVPGQVPEEEASHNGQRRGLPKAVCMNGTEAAQLSTKSRAEGRAPNPARKACSASSKIRRLSACKQQ [Q137R], for which the STK11 functional score is 0.73 ± 0.12.

Take MEVVDPQQLGMFTEGELMSVGMDTFIHRIDSTEVIYQPRRKRAKLIGKYLMGDLLGEGSYGKVKEVLDSETLCRRAVKILKKKKLRRIPNGEANVKKEIQLLRRLRHKNVIQLVDVLYNEEKQKMYMVMEYCVCGMNEMLDSVPEKRFPVCQAHGYFCQLIDGLEYLHSQGIVHKDIKPGNLLLTTGGTLKISDLGVAEALHPFAADDTCRTSQGSPAFQPPEIANGLDTFSGFKVDIWSAGVTLYNITTGLYPFEGDNIYKLFENIGKGSYAIPGDCGPPLSDLLKGMLEYEPAKRFSIRQIRQHSWFRKKHPPAEAPVPIPPSPDTKDRWRSMTVVPYLEDLHGADEDEDLFDIEDDIIYTQDFTVPGQVPEEEASHNGQRRGLPKAVCMNGTEAAQLSTKSRAEGRAPNPARKACSASSKIRRLSACKQQ [Q137N]: the STK11 functional score amounted to 1.62 ± 0.28.

As for MEVVDPQQLGMFTEGELMSVGMDTFIHRIDSTEVIYQPRRKRAKLIGKYLMGDLLGEGSYGKVKEVLDSETLCRRAVKILKKKKLRRIPNGEANVKKEIQLLRRLRHKNVIQLVDVLYNEEKQKMYMVMEYCVCGMMEMLDSVPEKRFPVCQAHGYFCQLIDGLEYLHSQGIVHKDIKPGNLLLTTGGTLKISDLGVAEALHPFAADDTCRTSQGSPAFQPPEIANGLDTFSGFKVDIWSAGVTLYNITTGLYPFEGDNIYKLFENIGKGSYAIPGDCGPPLSDLLKGMLEYEPAKRFSIRQIRQHSWFRKKHPPAEAPVPIPPSPDTKDRWRSMTVVPYLEDLHGADEDEDLFDIEDDIIYTQDFTVPGQVPEEEASHNGQRRGLPKAVCMNGTEAAQLSTKSRAEGRAPNPARKACSASSKIRRLSACKQQ [Q137M], the STK11 functional score worked out at 1.54 ± 0.059.

On to MEVVDPQQLGMFTEGELMSVGMDTFIHRIDSTEVIYQPRRKRAKLIGKYLMGDLLGEGSYGKVKEVLDSETLCRRAVKILKKKKLRRIPNGEANVKKEIQLLRRLRHKNVIQLVDVLYNEEKQKMYMVMEYCVCGMYEMLDSVPEKRFPVCQAHGYFCQLIDGLEYLHSQGIVHKDIKPGNLLLTTGGTLKISDLGVAEALHPFAADDTCRTSQGSPAFQPPEIANGLDTFSGFKVDIWSAGVTLYNITTGLYPFEGDNIYKLFENIGKGSYAIPGDCGPPLSDLLKGMLEYEPAKRFSIRQIRQHSWFRKKHPPAEAPVPIPPSPDTKDRWRSMTVVPYLEDLHGADEDEDLFDIEDDIIYTQDFTVPGQVPEEEASHNGQRRGLPKAVCMNGTEAAQLSTKSRAEGRAPNPARKACSASSKIRRLSACKQQ [Q137Y], for which the STK11 functional score stood at 0.779 ± 0.3.

Take MEVVDPQQLGMFTEGELMSVGMDTFIHRIDSTEVIYQPRRKRAKLIGKYLMGDLLGEGSYGKVKEVLDSETLCRRAVKILKKKKLRRIPNGEANVKKEIQLLRRLRHKNVIQLVDVLYNEEKQKMYMVMEYCVCGMWEMLDSVPEKRFPVCQAHGYFCQLIDGLEYLHSQGIVHKDIKPGNLLLTTGGTLKISDLGVAEALHPFAADDTCRTSQGSPAFQPPEIANGLDTFSGFKVDIWSAGVTLYNITTGLYPFEGDNIYKLFENIGKGSYAIPGDCGPPLSDLLKGMLEYEPAKRFSIRQIRQHSWFRKKHPPAEAPVPIPPSPDTKDRWRSMTVVPYLEDLHGADEDEDLFDIEDDIIYTQDFTVPGQVPEEEASHNGQRRGLPKAVCMNGTEAAQLSTKSRAEGRAPNPARKACSASSKIRRLSACKQQ [Q137W]: the STK11 functional score was 1.25 ± 0.087.

With MEVVDPQQLGMFTEGELMSVGMDTFIHRIDSTEVIYQPRRKRAKLIGKYLMGDLLGEGSYGKVKEVLDSETLCRRAVKILKKKKLRRIPNGEANVKKEIQLLRRLRHKNVIQLVDVLYNEEKQKMYMVMEYCVCGMQAMLDSVPEKRFPVCQAHGYFCQLIDGLEYLHSQGIVHKDIKPGNLLLTTGGTLKISDLGVAEALHPFAADDTCRTSQGSPAFQPPEIANGLDTFSGFKVDIWSAGVTLYNITTGLYPFEGDNIYKLFENIGKGSYAIPGDCGPPLSDLLKGMLEYEPAKRFSIRQIRQHSWFRKKHPPAEAPVPIPPSPDTKDRWRSMTVVPYLEDLHGADEDEDLFDIEDDIIYTQDFTVPGQVPEEEASHNGQRRGLPKAVCMNGTEAAQLSTKSRAEGRAPNPARKACSASSKIRRLSACKQQ [E138A], the STK11 functional score amounted to 1.09 ± 0.15.

In the case of MEVVDPQQLGMFTEGELMSVGMDTFIHRIDSTEVIYQPRRKRAKLIGKYLMGDLLGEGSYGKVKEVLDSETLCRRAVKILKKKKLRRIPNGEANVKKEIQLLRRLRHKNVIQLVDVLYNEEKQKMYMVMEYCVCGMQCMLDSVPEKRFPVCQAHGYFCQLIDGLEYLHSQGIVHKDIKPGNLLLTTGGTLKISDLGVAEALHPFAADDTCRTSQGSPAFQPPEIANGLDTFSGFKVDIWSAGVTLYNITTGLYPFEGDNIYKLFENIGKGSYAIPGDCGPPLSDLLKGMLEYEPAKRFSIRQIRQHSWFRKKHPPAEAPVPIPPSPDTKDRWRSMTVVPYLEDLHGADEDEDLFDIEDDIIYTQDFTVPGQVPEEEASHNGQRRGLPKAVCMNGTEAAQLSTKSRAEGRAPNPARKACSASSKIRRLSACKQQ [E138C], the STK11 functional score is 0.386 ± 0.081.
